Patent US20190233494A1 (Sanofi, published 2019)
Starred links: 1 amine or outer side, 2 acyl side, 3 side chain; linkers in the order of their positions; H or OH if unused. Non-standard residues stand in square brackets, D forms with d. Groups on a side chain read outwards from the residue. *: point of attachment. TTDS = 4-[3-[2-[2-(3-aminopropoxy)ethoxy]ethoxy]propylamino]-4-oxo-butanoyl; γGlu = O=C(O)[C@H](CCC(=O)[*:2])N[*:1]; Stearoyl = CCCCCCCCCCCCCCCCCC(=O)*; Palmitoyl = CCCCCCCCCCCCCCCC(=O)*; αMeK = C[C@](N)(CCCCN)C(=O)O; hLys = NCCCCC[C@H](N)C(=O)O; AEEA = NCCOCCOCC(=O)O; Aib = CC(C)(N)C(=O)O

T1: RXFP1 receptor (endogenous, on OVCAR5 cells) (UniProt Q9HBX9 1-757, limits assumed)
T1 sequence (looked up): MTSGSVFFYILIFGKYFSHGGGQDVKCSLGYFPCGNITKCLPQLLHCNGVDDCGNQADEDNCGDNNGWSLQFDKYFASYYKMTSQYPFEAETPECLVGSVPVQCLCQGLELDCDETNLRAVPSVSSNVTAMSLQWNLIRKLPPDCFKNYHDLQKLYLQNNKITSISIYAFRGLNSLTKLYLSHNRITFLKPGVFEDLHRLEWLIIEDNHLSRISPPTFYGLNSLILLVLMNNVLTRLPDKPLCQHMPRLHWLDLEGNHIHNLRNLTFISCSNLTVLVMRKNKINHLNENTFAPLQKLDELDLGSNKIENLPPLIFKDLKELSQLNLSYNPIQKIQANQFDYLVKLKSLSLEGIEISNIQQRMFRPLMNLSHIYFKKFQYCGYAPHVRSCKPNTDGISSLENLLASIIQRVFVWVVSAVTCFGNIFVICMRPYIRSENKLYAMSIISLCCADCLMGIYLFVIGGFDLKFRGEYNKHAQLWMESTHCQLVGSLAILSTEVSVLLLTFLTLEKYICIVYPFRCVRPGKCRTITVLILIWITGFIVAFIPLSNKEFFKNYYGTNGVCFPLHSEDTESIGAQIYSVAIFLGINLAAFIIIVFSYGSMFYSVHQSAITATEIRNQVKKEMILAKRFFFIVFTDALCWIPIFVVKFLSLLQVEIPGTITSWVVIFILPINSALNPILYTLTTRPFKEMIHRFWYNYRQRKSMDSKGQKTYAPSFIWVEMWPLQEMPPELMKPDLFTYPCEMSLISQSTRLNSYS


Target: T1, RXFP1 receptor (endogenous, on OVCAR5 …)
Assay: cell-based or functional assay

Row | EC50 (nM), OVCAR 5 cells (cAMP) | EMax, OVCAR 5 cells (cAMP) | Binder
1 | 0.21 nM | 89% | Ac-LEGREKVRAK(Ac)I[Aib][Aib]EGK([TTDS-TTDS-TTDS-γGlu-γGlu-γGlu-Stearoyl])STWS[αMeK]RAK(Ac)-NH2 [peptide of SEQ ID NO: 30]
2 | 1 nM | 92% | LEGREKVRAXIXXEGXSTFSXRAX (Ac-L-E-G-R-E-K-V-R-A-K(Ac)-I-Aib-Aib-E-G-K(PEG2DGA-PEG2DGA-PEG2DGA-gE-gE-gE-Palm)-S-T-F-S-Mly-R-A-K(Ac)-NH2) [peptide of SEQ ID NO: 22]
3 | 2.33 nM | 91% | Ac-LEGREKVRAK(Ac)I[Aib][Aib]EGK([TTDS-TTDS-TTDS-γGlu-γGlu-γGlu-Palmitoyl])STW[Aib]KRAK(Ac)-NH2 [peptide of SEQ ID NO: 35]
4 | 0.62 nM | 88% | Ac-LEGRE[hLys]VRAK(Ac)I[Aib][Aib]EGK([TTDS-TTDS-TTDS-γGlu-γGlu-γGlu-Palmitoyl])STFS[αMeK]RAK(Ac)-NH2 [peptide of SEQ ID NO: 28]
5 | 3.6 nM | 93% | Ac-LEGREKVRAK(Ac)I[Aib][Aib]EGK([TTDS-TTDS-TTDS-γGlu-γGlu-γGlu-Palmitoyl])STFS[Dlys]RAK(Ac)-NH2 [peptide of SEQ ID NO: 36]
6 | 1.6 nM | 88% | Ac-LEGREKVR[Aib]K(Ac)I[Aib][Aib]EGK([TTDS-TTDS-TTDS-γGlu-γGlu-γGlu-Palmitoyl])STFS[αMeK]RAK(Ac)-NH2 [peptide of SEQ ID NO: 29]
7 | 0.14 nM | 90% | Ac-LEGREKVRAK(Ac)I[Aib][Aib]EGK([TTDS-TTDS-γGlu-γGlu-γGlu-Stearoyl])STFS[αMeK]RAK(Ac)-NH2 [peptide of SEQ ID NO: 34]
8 | 0.34 nM | 97% | Ac-LEGREKVRAK(Ac)I[Aib][Aib]EGK([TTDS-TTDS-TTDS-γGlu-γGlu-γGlu-Palmitoyl])STFS[αMeK]RAK(Ac)-NH2 [peptide of SEQ ID NO: 3]

More lines, now with the values behind:

Row | Binder | EC50 (nM), OVCAR 5 cells (cAMP) | EMax, OVCAR 5 cells (cAMP)
9 | Ac-LEGRELVRAK(Ac)I[Aib][Aib]EGK([TTDS-TTDS-TTDS-γGlu-γGlu-γGlu-Palmitoyl])STWS[Aib]RRK(Ac)-NH2 [peptide of SEQ ID NO: 37] | 5.6 nM | 98%
10 | LEGREKVRAXIXXEGXSTFSXRAX (Ac-L-E-G-R-E-K-V-R-A-K(Ac)-I-Aib-Aib-E-G-K(PEG2DGA-PEG2DGA-PEG2DGA-gE-gE-gE-Stea)-S-T-F-S-Mly-R-A-K(Ac)-NH2) [peptide of SEQ ID NO: 32] | 0.1 nM | 97%
11 | Ac-LEGRERVRAK(Ac)I[Aib][Aib]EGK([TTDS-TTDS-TTDS-γGlu-γGlu-γGlu-Palmitoyl])STFS[αMeK]RAK(Ac)-NH2 [peptide of SEQ ID NO: 27] | 1.8 nM | 98%
12 | Ac-LEGREQVRAK(Ac)I[Aib][Aib]EGK([TTDS-TTDS-TTDS-γGlu-γGlu-γGlu-Palmitoyl])STFS[αMeK]RAK(Ac)-NH2 [peptide of SEQ ID NO: 25] | 28.7 nM | 100%
13 | Ac-LEGREFVRAK(Ac)I[Aib][Aib]EGK([TTDS-TTDS-TTDS-γGlu-γGlu-γGlu-Palmitoyl])STWS[Aib]RRK(Ac)-NH2 [peptide of SEQ ID NO: 39] | 8.7 nM | 93%
14 | Ac-LEGREKVRAK(Ac)I[Aib][Aib]EGK([AEEA-AEEA-AEEA-AEEA-γGlu-γGlu-γGlu-Stearoyl])STWS[Aib]RKK(Ac)-NH2 (SMILES CCCCCCCCCCCCCCCCCC(=O)N[C@@H](CCC(=O)N[C@@H](CCC(=O)N[C@@H](CCC(=O)NCCOCCOCC(=O)NCCOCCOCC(=O)NCCOCCOCC(=O)NCCOCCOCC(=O)NCCCC[C@H](NC(=O)CNC(=O)[C@H](CCC(=O)O)NC(=O)C(C)(C)NC(=O)C(C)(C)NC(=O)[C@@H](NC(=O)[C@H](CCCCNC(C)=O)NC(=O)[C@H](C)NC(=O)[C@H](CCCNC(=N)N)NC(=O)[C@@H](NC(=O)[C@H](CCCCN)NC(=O)[C@H](CCC(=O)O)NC(=O)[C@H](CCCNC(=N)N)NC(=O)CNC(=O)[C@H](CCC(=O)O)NC(=O)[C@H](CC(C)C)NC(C)=O)C(C)C)[C@@H](C)CC)C(=O)N[C@@H](CO)C(=O)N[C@H](C(=O)N[C@@H](Cc1c[nH]c2ccccc12)C(=O)N[C@@H](CO)C(=O)NC(C)(C)C(=O)N[C@@H](CCCNC(=N)N)C(=O)N[C@@H](CCCCN)C(=O)N[C@@H](CCCCNC(C)=O)C(N)=O)[C@@H](C)O)C(=O)O)C(=O)O)C(=O)O) [peptide of SEQ ID NO: 21] | 0.65 nM | 93%
15 | Ac-LEGREFVRAK(Ac)I[Aib][Aib]EGK([TTDS-TTDS-TTDS-γGlu-γGlu-γGlu-Palmitoyl])STFS[αMeK]RAK(Ac)-NH2 [peptide of SEQ ID NO: 24] | 36.4 nM | 100%
16 | Ac-LEGREKVRAK(Ac)I[Aib][Aib]EGK([TTDS-TTDS-γGlu-γGlu-γGlu-Palmitoyl])STWS[Aib]RKK(Ac)-NH2 [peptide of SEQ ID NO: 4] | 1.5 nM | 89%
17 | Ac-LEGREKVRAK(Ac)I[Aib][Aib]EGK([AEEA-AEEA-AEEA-AEEA-γGlu-γGlu-γGlu-Stearoyl])STFS[αMeK]RAK(Ac)-NH2 (SMILES CCCCCCCCCCCCCCCCCC(=O)N[C@@H](CCC(=O)N[C@@H](CCC(=O)N[C@@H](CCC(=O)NCCOCCOCC(=O)NCCOCCOCC(=O)NCCOCCOCC(=O)NCCOCCOCC(=O)NCCCC[C@H](NC(=O)CNC(=O)[C@H](CCC(=O)O)NC(=O)C(C)(C)NC(=O)C(C)(C)NC(=O)[C@@H](NC(=O)[C@H](CCCCNC(C)=O)NC(=O)[C@H](C)NC(=O)[C@H](CCCNC(=N)N)NC(=O)[C@@H](NC(=O)[C@H](CCCCN)NC(=O)[C@H](CCC(=O)O)NC(=O)[C@H](CCCNC(=N)N)NC(=O)CNC(=O)[C@H](CCC(=O)O)NC(=O)[C@H](CC(C)C)NC(C)=O)C(C)C)[C@@H](C)CC)C(=O)N[C@@H](CO)C(=O)N[C@H](C(=O)N[C@@H](Cc1ccccc1)C(=O)N[C@@H](CO)C(=O)N[C@@](C)(CCCCN)C(=O)N[C@@H](CCCNC(=N)N)C(=O)N[C@@H](C)C(=O)N[C@@H](CCCCNC(C)=O)C(N)=O)[C@@H](C)O)C(=O)O)C(=O)O)C(=O)O) [peptide of SEQ ID NO: 26] | 0.43 nM | 96%
18 | Ac-LEGRELVRAK(Ac)I[Aib][Aib]EGK([TTDS-TTDS-TTDS-γGlu-γGlu-γGlu-Palmitoyl])STFS[αMeK]RAK(Ac)-NH2 [peptide of SEQ ID NO: 23] | 11.1 nM | 92%
19 | Ac-LEGRERVRAK(Ac)I[Aib][Aib]EGK([TTDS-TTDS-TTDS-γGlu-γGlu-γGlu-Palmitoyl])STWS[Aib]RRK(Ac)-NH2 [peptide of SEQ ID NO: 31] | 0.19 nM | –
